Legend:
[1] = system: BALB/cJ tail skin graft on VG mice humanized for IL2RG; test: In vivo skin graft rejection model, REGN7257 with MMF (Example 4); set-up: species or system mouse; details: REGN7257 25 mg/kg s.c. 2 times per week from 2 days prior to transplant; MMF 100 mg/kg i.p. daily from day of transplant; until rejection; FIG. 9
Source text: (§1) BALB/cJ mice obtained from The Jackson Laboratory (Bar Harbor, ME) were used as skin graft donors, and MHC mismatched Velocigene® (VG) background mice (C57BL/6NTac (75%)/129S6SvEvTac (25%)) from the Regeneron Velocigene® breeding colony that were genetically modified to replace the endogenous IL2RG ectodomain with the corresponding human sequences were used as recipients. The skin graft was obtained from the tail of the donor mice. The skin was the peeled off using forceps and punched with a 10 mm diameter biopsy punch.
REGN7257 was administered subcutaneously at doses of 25 mg/kg at a frequency of 2 times per week starting 2 days prior to transplant, and continuing until rejection. MMF was administered intraperitoneally daily at a dose 100 mg/kg starting on the day of transplant, and continuing until rejection. Recipients with the surgical site shaved were anesthetized by isoflurane via a nose cone and administered an analgesic (buprenorphine-sustained release) (ZooPharm). The shaved dorsal area was swabbed with applications of povidone-iodine and alcohol. The graft bed was created midway laterally between the dorsal and ventral sides of the mouse by pinching skin with forceps followed by skin excision utilizing a sterile 10 mm diameter biopsy skin punch. […]

[2] = system: BALB/cJ tail skin graft on VG mice humanized for IL2RG; test: In vivo skin graft rejection model, REGN7257 monotherapy (Example 1); set-up: species or system mouse; details: 25 mg/kg s.c. 2 times per week starting 3 weeks prior to transplant until rejection
Source text: as §1
As detailed in Table 2 below, VG mice (humanized for IL2RG), used as graft recipients, were administered no treatment (negative control), an isotype control (REGN1945), or REGN7257 subcutaneously at doses 25 mg/kg at a frequency of 2 times per week starting 3 weeks prior to transplant, and continuing until rejection (FIG. 1). […]
These grafts will display scabbing and contraction several […] from bandage removal. […] The complete rejection timepoint is recorded as the first day where 100% of the graft tissue was necrotic. Rejection onset was recorded as the first day where there were signs of rejection (i.e., redness). Significance was determined by Log-rank (Mantel-Cox) test with Bonferroni correction (adjusted p value 0.00555, K=9).

[3] = system: donor-specific antibodies (total IgG binding to CT26.WT cells); test: Detection of donor specific antibodies by flow cytometry (Example 1); type: in vivo, mouse; details: blood sampled day 56 post-transplant; MFI at 1/512 serum dilution; FIG. 3
Experimental: Detection of donor specific antibodies by flow cytometry: Blood was sampled at the day 56 post-transplant timepoint to assess formation of donor-specific antibodies. CT26.WT (ATCC® CRL-2638™) cells were cultured in tissue culture flasks to 80% confluent. Cells were washed with 1×DPBS and dissociated with TrypLE Express reagent (Gibco) by incubating at room temperature for 5 minutes and washing flask with complete RPMI 1640 media. Cells were then centrifuged (500 g, 10 minutes), and resuspended at 5 million cells/ml with 1×DPBS with 1:50 dilution of 4 μg/mL of Fc block (Tonbo) for 15 minutes at room temperature. The suspension was plated at 250,000 cells/well (50 μL) in a 384 well V-bottom plate.
50 μL of serially diluted sample serum from transplanted mice and from non-engrafted wild type VG mouse (C57BL/6NTac (75%)/129S6SvEvTac (25%)) and wild type BALB/cJ mouse obtained from The Jackson Laboratory was added to its respective well and incubated at 37° C. for 45 minutes. Following 2 washes with MACS buffer (500 g, 4 minutes), the cells were resuspended in 50 μL of LIVE/DEAD™ Fixable Blue Dead Cell Stain Kit (Invitrogen) diluted 1:500 in 1×DPBS at 50 μL total volume per well and incubated at room temperature for 15 minutes. […] Acquired events were analyzed with FlowJo (BD). […]

[4] = system: BALB/cJ tail skin graft on VG mice humanized for IL2RG; test: In vivo skin graft rejection model, REGN7257 induction with abatacept maintenance (Example 2); set-up: species or system mouse; details: induction: 2 doses 25 mg/kg s.c. (2 days prior and day of transplant); maintenance: 25 mg/kg s.c. 2 times per week from day of transplant until rejection; FIG. 5
Experimental: (2) “Scabbing” and contraction of the graft at later times was used as indicators of graft rejection. The complete rejection timepoint is recorded as the first day where 100% of the graft tissue was necrotic. Significance was determined by Log-rank (Mantel-Cox) test with Bonferroni correction (α=0.005, k=10).

Row | Molecule | Median Survival Time [MST] of skin graft [1] | overall skin graft survival (time to complete rejection) ([2]; FIG. 2B) | onset of skin graft rejection ([2]; vs no mAb and isotype control, FIG. 2A) | generation of donor-specific antibodies [3] | skin graft median survival time [MST] (time to complete skin graft rejection) [4] [days]
1 | COc1c(C)c2c(c(O)c1C/C=C(\C)CCC(=O)OCCN1CCOCC1)C(=O)OC2 [MMF, mycophenolate mofetil, reference compound] | 10 | – | – | – | –
2 | REGN7257: fully human IL-2Rγ antibody comprising the HCVR of SEQ ID NO: 1 and the LCVR of SEQ ID NO:5 (antibody, V domains shown) VH: EVQLVESGGGLVQPGGSLRLSCAASGFIFSSYEMHWVRQAPGKGLEWISYISSSGTTIYYADSVKGRFTISRDNAKNSLYLHMNSLRAEDTAVYYCTRARITGTFDVFDIWGQGTMVTVSS VL: DIQMTQSPSSLSASVGDRVTITCRASQSISSYLNWYQQKPGKAPKLLIFAASNLQSGVPSRFSGSRSGTDFTLTISSLQPEDFATYYCQQNYNIPYTFGQGTKLEIK | 12 | improved | delayed | prevented | 11

From patent US20260273048A1, “METHODS OF IMPROVING TRANSPLANT SURVIVAL USING IL-2 RECEPTOR GAMMA CHAIN ANTIBODIES” (Regeneron Pharmaceuticals, Inc., priority 2023, published 2026)
